In IntAct's records for PubMed 35512704:

B1: Mothers against decapentaplegic homolog 4 (Homo sapiens), Q13485 (parent)
chain: MDNMSITNTPTSNDACLSIVHSLMCHRQGGESETFAKRAIESLVKKLKEKKDELDSLITAITTNGAHPSKCVTIQRTLDGRLQVAGRKGFPHVIYARLWRWPDLHKNELKHVKYCQYAFDLKCDSVCVNPYHYERVVSPGIDLSGLTLQSNAPSSMMVKDEYVHDFEGQPSLSTEGHSIQTIQHPPSNRASTETYSTPALLAPSESNATSTANFPNIPVASTSQPASILGGSHSEGLLQIASGPQPGQQQNGFTGQPATYHHNSTTTWTGSRTAPYTPNLPHHQNGHLQHHPPMPPHPGHYWPVHNELAFQPPISNHPAPEYWCSIAYFEMDVQVGETFKVPSSCPIVTVDGYVDPSGGDRFCLGQLSNVHRTEAIERARLHIGKGVQLECKGEGDVWVRCLSDHAVFVQSYYLDREAGRAPGDAVHKIYPSAYIKVFDLRQCHRQMQQQAATAQAAAAAQAAAVAGNIPGPGSVGGIAPAISLSAAAGIGVDDLRRLCILRMSFVKGWGPDYPRQSIKETPCWIEIHLHRALQLLDEVLHTMPIADPQPLD
partner: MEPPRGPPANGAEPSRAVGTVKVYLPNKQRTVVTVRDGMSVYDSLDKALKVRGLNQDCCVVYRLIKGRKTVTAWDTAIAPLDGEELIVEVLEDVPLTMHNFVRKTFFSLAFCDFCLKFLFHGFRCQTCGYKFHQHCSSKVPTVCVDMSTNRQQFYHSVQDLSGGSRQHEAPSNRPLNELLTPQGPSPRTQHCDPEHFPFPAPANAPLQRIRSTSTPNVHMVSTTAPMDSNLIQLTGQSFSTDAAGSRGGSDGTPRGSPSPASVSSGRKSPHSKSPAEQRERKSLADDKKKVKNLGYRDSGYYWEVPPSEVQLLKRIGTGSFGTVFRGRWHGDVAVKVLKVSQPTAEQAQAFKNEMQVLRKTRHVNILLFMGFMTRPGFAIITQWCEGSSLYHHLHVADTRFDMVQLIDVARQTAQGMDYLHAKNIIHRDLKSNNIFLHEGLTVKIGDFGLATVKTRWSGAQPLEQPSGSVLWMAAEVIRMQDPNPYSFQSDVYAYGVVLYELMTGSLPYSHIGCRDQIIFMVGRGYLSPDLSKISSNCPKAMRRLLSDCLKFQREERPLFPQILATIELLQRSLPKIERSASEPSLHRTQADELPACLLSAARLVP
B2: Mothers against decapentaplegic homolog 4 (Homo sapiens), Q13485 (parent)
chain: B1 chain
partner: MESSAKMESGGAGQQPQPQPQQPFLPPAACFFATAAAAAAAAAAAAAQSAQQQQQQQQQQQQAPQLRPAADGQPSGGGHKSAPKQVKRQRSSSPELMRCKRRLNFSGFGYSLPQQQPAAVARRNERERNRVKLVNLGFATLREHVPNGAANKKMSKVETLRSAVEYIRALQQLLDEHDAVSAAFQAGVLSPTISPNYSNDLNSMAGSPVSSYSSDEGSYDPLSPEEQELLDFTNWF

Variants of: B1
Conditions: with araf_human ARAF

effect of a mutation on the interaction	Variant
with no effect	D351H

Variants of: B1
Conditions: with araf_human ARAF
Remark: another data set of the same source

effect of a mutation on the interaction	Variant
with no effect	R361C

Variants of: B1
Conditions: with araf_human ARAF
Remark: another data set of the same source

effect of a mutation on the interaction	Variant
with no effect	R361H

Variants of: B1
Conditions: with araf_human ARAF
Remark: another data set of the same source

effect of a mutation on the interaction	Variant
with no effect	G386D

Variants of: B1
Conditions: with araf_human ARAF
Remark: another data set of the same source

effect of a mutation on the interaction	Variant
increasing interaction strength	G386D

Variants of: B2
Conditions: with ascl1_human ASCL1, P50553

effect of a mutation on the interaction	Variant
with no effect	D351H

Variants of: B2
Conditions: with ascl1_human ASCL1, P50553
Remark: another data set of the same source

effect of a mutation on the interaction	Variant
with no effect	G386D
